Experimental data taken from US5880093A, “Use of parathormone, its biologically active fragments and correlated peptides, for the preparation of pharmaceutical compositions useful for the treatment of pregnancy” (priority 1992, dated 1999).
“Also recorded” adds a separate entry of the source.

Legend:
uterine contractions = experiment: clinical observation of pregnant women with symptoms of likely premature birth (cardiotocography, arterial pressure, heart rate); format: in vivo, human
Experimental: Three pregnant women having symptoms indicating the likelihood of premature birth have been observed while in their 34-36th week of pregnancy. […] Arterial pressure, heart rate and skin coloring were evaluated. The women were clearly aware of the contractions and of the pain caused by such contractions.
The women were administered 100 Units of synthetic Parathormone 1-34 (two vials according to Examples 1 and 2) by rapid infusion (10 minutes), diluted in 200 cc of physiological solution. Two blood samples were taken before and after infusion and the serum was frozen and stored at -20° C. for the evaluation of the mineral elements (calcium, phosphorous, magnesium, alkaline phosphatase, parathormone, progesterone, estradiol).

[1] = test system: contractions induced by PGF2alpha; experiment: contractions induced by PGF2alpha; format: in vivo; conditions: PGF2alpha 1 mg/kg; PTH 4×10^-4 mg/Kg; FIG. 4 vs FIG. 3
Text: Furthermore. Parathormone, has also been essayed for the contractions induced by PGF2alpha according to the technique described in the British Journal of Pharmacology 93: 185-191 (1988).

rat uterus = conditions: in vitro, studies reported in the literature; cited from earlier work
human myometrium = experiment: in vitro motility of fragments of myometrium of pregnant women, contraction induced by oxytocin; conditions: PTH 8.5×10^-8 M, oxytocin 1×10^-2 U, myometrium taken during Caesarean birth, FIG. 2 vs FIG. 1
Text: Experimental Trials on the in vitro motility of fragments of myometrium of pregnant women

[2] = three pregnant women, 34-36th week, 100 Units by rapid infusion (10 minutes)

Question: Which “arterial pressure and heart rate of the mother” value (uterine contractions; 100 Units by rapid infusion) does the source give for Parathormone 1-34 here?
Answer: did not show variations of worthwhile note

Question: What about the “patient-reported uterine contractions and pain caused by the contractions” value (uterine contractions; 100 Units by rapid infusion, pain particularly in the lumbar-sacral region) of the same molecule?
Answer: immediate disappearance of uterine contractions and of pain

Question: And the fetal heart beat (uterine contractions; cardiotocography, 40 minutes monitoring, 100 Units by rapid infusion, FIG. 5)?
Answer: did not show variations and remained within the normal limits

Question: What about the “cardiotocography waves referring to uterine contractions” value (uterine contractions; period of monitoring 40 minutes, 100 Units by rapid infusion, FIG. 5) of the same molecule?
Answer: disappearance of waves referring to uterine contractions

Question: And the “efficacy on uterine contractility” value (uterine contractions; [2])?
Answer: efficacy of Parathormone on uterine contractility

Question: And the “side effects in mother and fetus” value (uterine contractions; [2])?
Answer: no side effects have been noted either in the mother or the fetus; also recorded: no side effects were noted in relation to the infusion of the drug

B1: Parathormone (protein, UniProt P01270 32-115, looked up)
Parathyroid hormone: SVSEIQLMHNLGKHLNSMERVEWLRKKLQDVHNFVALGAPLAPRDAGSQRPRKKEDNVLVESHEKSLGEADKADVNVLTKAKSQ
modifications: Parathyroid hormone
notes: intact (whole) human parathyroid hormone
Question: For B1, which “effect on contractions induced by PGF2alpha (intensity and duration)” value [1] is on record?
Answer: clear inhibitory effect both in terms of intensity and duration

Question: What about the “action on contractility of the rat uterus induced by oxytocin, acetylcholine and prostaglandin” value (rat uterus) of the same molecule?
Answer: inhibitory action

Question: And the “effect on contraction of human myometrium induced by oxytocin” value (human myometrium)?
Answer: net inhibitory effect

Question: And the “effect on contraction of human myometrium induced by oxytocin” value (human myometrium; listed as intact human parathormone)?
Answer: inhibitory effect (flat trace)
